Laboratory results reported in patent US11421029 (SICHUAN KELUN BIOTECH BIOPHARMACEUTICAL, dated 2022).
One block for each binder: values may come before it.

Experiments:
[1] = target: T1, recombinant PDL-1-mFc protein (UniProt Q9NZQ7 19-238); assay: competitive ELISA: PD1-hFc coated, antibody premixed with PDL-1-mFc, anti-mouse IgG-HRP detection; competitor PD1-hFc
T1 construct: Obtained from Kelun-Biotech; only the UniProt entry is named; not shown: mFc part
Method: The recombinant PD1-hFc protein (purchased from Sino Biological Inc.) was added into a 96-well enzyme labeled plate (purchased from Thermo) at 100 ng/well, and the coating was carried out at 4° C. overnight. On the next day, the solution in the wells was discarded and wells were washed one time with washing buffer (phosphate buffer solution containing 0.05% Tween-20) and the solution in the wells was discarded again. PBS solution containing 2% BSA was added at 100 μl/well for blocking the wells at 37° C. for 2 hours, and then the solution in the wells was discarded. […] The plate was incubated at 37° C. for 2 hours, then the solution in the wells was discarded and the well was washed with the washing buffer for three times. HRP conjugated goat anti-mouse IgG(H+L) (purchased from Thermo) solution was added into the plate at 100 μl/well and the plate was incubated at 37° C. for 1 hour. TMB solution was added to the wells, and the reaction was carried out at room temperature for about 5 minutes. Stop solution was added to the plate, and then the plate was put into an ELISA instrument in order to read an OD450 light absorbance value.

[2] = target: PDL-1 expressed on CHO-PDL-1-CD3L cells (UniProt Q9NZQ7 19-290, limits assumed); assay: cell-based or functional assay
[3] = target: T2, recombinant CD16a (Val) protein (UniProt P08637 17-208, limits assumed); assay: ELISA: CD16a (Val) coated, antibody crosslinked with goat F(ab)2 anti-human kappa
T2 construct: Purchased from Sino Biological Inc. '(Val)' is printed without the position of the valine
Method: The recombinant CD16a (Val) protein (purchased from Sino Biological Inc.) was added into a 96-well enzyme labeled plate (purchased from Thermo) at 100 ng/well, and coating was carried out at 4° C. overnight. On the next day, the solution in the wells was discarded, the wells were washed with a washing buffer solution (a phosphate buffer solution containing 0.05% Tween-20) for one time and the solution in the wells was discarded. PBS solution containing 2% BSA was added at 100 μl/well for blocking the well at 25° C. for 2 hours, and then solution in the wells was discarded. […] The plate was incubated at 25° C. for 2 hours, then the solution in the wells was discarded and the well was washed with the washing buffer for three times. […] Then solution in the well was discarded and the well was washed with the washing buffer for five times. TMB solution was added to the well at a concentration of 100 μl/well, and the reaction was carried out at room temperature for about 30 minutes. Stop solution at 100 μl/well was added to the plate, and then the plate was put into an ELISA instrument to read OD450 absorbance values.

[4] = target: T1, recombinant PDL-1-mFc protein; assay: ELISA: PDL-1-mFc coated, anti-human IgG-HRP detection
Method: On the next day, the solution in the wells was discarded, and the wells were washed with a washing buffer (a phosphate buffer solution containing 0.05% Tween-20) for one time and the solution in the wells was discarded. PBS solution containing 2% BSA was added at 100 μl/well and the wells were blocked at […] for 2 hours. Then the solution in the well was discarded. […] The plate was incubated at 37° C. for 2 hours, then the solution in the wells was discarded and the wells were washed for three times. HRP conjugated goat anti-human IgG(H+L) was added into the plate at 100 μl/well and the plate was incubated at 37° C. for 1 hour. TMB solution was added to the wells at a concentration of 100 μl/well, and the reaction was carried out at room temperature for about 5 minutes. A stop solution at 100 μl/well was added to the plate, and then the plate was put into an ELISA plate reader reading OD450 absorbance values.

[5] = target: T3, recombinant CTLA-4-His protein (UniProt P16410 36-161, limits assumed); assay: ELISA: CTLA-4-His batch 1 coated, anti-human IgG-HRP detection
T3 construct: Obtained from Kelun-Biotech; only the UniProt entry is named; also called CLTA-4-His; not shown: His tag
T3 sequence (looked up): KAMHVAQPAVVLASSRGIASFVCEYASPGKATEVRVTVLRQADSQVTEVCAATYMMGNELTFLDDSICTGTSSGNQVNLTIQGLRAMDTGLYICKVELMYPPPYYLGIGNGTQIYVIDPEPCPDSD
Method: (§1) Two batches of recombinant CLTA-4-His proteins (obtained from Kelun-Biotech, Uniport No.: P16410) were diluted with PBS respectively, the dilutes of CTLA-4-His at 100 μl/well were added into a 96-well ELISA plate, and coating was carried out at 4° C. overnight. On the next day, the solution in the wells was discarded, and wells were washed one time with washing buffer and the solution in the wells was discarded again. PBS solution containing 2% BSA was added at 100 μl/well for blocking the well at 37° C. for 2 hours, and then the solution in the well was discarded. […] The HRP conjugated goat anti-human IgG (H+L) solution was added into the plate and the plate was incubated at 37° C. for 1 hour. TMB solution was added to the well, and the reaction was carried out at room temperature for about 8 minutes. The stop solution was added to the plate, and then the plate was put into an ELISA plate reader to read OD450 absorbance values. Fitting curves were made by the means of the experimental data, as shown in FIG. 4A and FIG. 4B, and EC50 was calculated.

[6] = target: T1, recombinant PDL-1-mFc protein; assay: bridging ELISA for both antigens at once: PDL-1-mFc coated, antibody titrated, then 1.5 ug/ml CTLA-4-His, anti-His-HRP detection
Method: On the next day, the solution in the wells was discarded, wells were washed one time with washing buffer (phosphate buffer solution containing 0.05% Tween-20) and solution in the well was discarded again. PBS solution containing 2% BSA was added at 100 μl/well for blocking the wells at 37° C. for 2 hours, and then solution in the wells was discarded. The recombinant bispecific antibodies were diluted 5 folds serially at a start concentration of 100000 ng/mL to get 11 concentration gradients, and were added to the wells at 100 μl/well. The plate was incubated at 37° C. for 2 hours, then the solution in the wells was discarded and wells were washed with the washing buffer for three times. 1.5 ug/ml of the CTLA-4-His protein was added into the plate at 100 μl/well, and plate was incubated at 37° C. for 2 hours. Then the solution in the wells was discarded and wells were washed with the washing buffer for three times. HRP conjugated goat anti-his (purchased from BioLegend) was added into the plate and the plate was incubated at 37° C. for 1 hour. TMB solution was added to the wells, and the reaction was carried out at room temperature for about 5 minutes. Stop solution was added to the plate, and then the plate was put into an ELISA plate reader to read OD450 absorbance values.

[7] = target: T3, recombinant CTLA-4-His protein; assay: ELISA: CTLA-4-His batch 2 coated, anti-human IgG-HRP detection
Method: as §1

[8] = target: T3, recombinant CTLA-4-His protein; assay: ELISA: CTLA-4-His coated; reference AB02
Method: as §1

Chain of PDL-1 expressed on CHO-PDL-1-CD3L cells (Q9NZQ7 19-290 limits assumed): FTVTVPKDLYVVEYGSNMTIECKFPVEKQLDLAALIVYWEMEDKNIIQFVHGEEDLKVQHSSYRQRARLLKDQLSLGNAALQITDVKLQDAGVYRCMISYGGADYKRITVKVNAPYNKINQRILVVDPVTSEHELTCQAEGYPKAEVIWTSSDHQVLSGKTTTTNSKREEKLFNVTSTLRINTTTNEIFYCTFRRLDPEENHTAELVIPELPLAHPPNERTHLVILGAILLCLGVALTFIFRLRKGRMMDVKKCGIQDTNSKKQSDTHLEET
T2 sequence (P08637 17-208 F176V limits assumed): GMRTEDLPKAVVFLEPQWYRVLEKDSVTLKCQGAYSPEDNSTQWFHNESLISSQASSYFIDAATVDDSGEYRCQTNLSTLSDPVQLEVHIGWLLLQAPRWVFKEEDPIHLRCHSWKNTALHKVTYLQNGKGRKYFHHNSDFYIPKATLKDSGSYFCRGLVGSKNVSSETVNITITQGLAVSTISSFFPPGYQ
T1 sequence (Q9NZQ7 19-238): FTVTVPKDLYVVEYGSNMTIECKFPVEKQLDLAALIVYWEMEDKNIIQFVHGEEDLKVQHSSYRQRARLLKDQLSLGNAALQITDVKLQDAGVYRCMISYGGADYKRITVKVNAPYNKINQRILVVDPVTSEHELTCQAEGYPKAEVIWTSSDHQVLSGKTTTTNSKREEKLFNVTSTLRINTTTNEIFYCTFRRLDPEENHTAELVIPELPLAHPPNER

EC50 [1]: 3.82 nM
EC50 of blocking PDL-1/PD1 in the luciferase (NFAT) reporter assay [2]: 1.68 nM
EC50 [4]: 0.0155 nM
B1: anti-PDL-1 parental antibody AB01 (antibody, human IgG1, kappa)
heavy: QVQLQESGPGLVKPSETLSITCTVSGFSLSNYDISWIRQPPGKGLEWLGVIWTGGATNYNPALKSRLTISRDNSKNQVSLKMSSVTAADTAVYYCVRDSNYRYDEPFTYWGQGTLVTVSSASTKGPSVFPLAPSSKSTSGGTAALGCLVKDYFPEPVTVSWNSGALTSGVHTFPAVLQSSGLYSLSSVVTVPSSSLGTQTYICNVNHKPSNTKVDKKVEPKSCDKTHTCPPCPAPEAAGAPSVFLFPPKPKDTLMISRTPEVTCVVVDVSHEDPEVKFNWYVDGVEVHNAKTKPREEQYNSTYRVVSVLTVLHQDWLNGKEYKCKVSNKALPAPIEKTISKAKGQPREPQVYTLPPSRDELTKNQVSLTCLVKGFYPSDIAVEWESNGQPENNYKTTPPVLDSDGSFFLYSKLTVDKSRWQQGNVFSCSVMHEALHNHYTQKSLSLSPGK
light: EIVLTQSPDTLSVTPKEKVTLTCRASQSIGTNIHWFQQKPGQSPKLLIKYASESISGVPSRFSGSGSGTDFTLTINSVEAEDAATYYCQQSNSWPYTFGQGTKLEIKRTVAAPSVFIFPPSDEQLKSGTASVVCLLNNFYPREAKVQWKVDNALQSGNSQESVTEQDSKDSTYSLSSTLTLSKADYEKHKVYACEVTHQGLSSPVTKSFNRGEC
notes: also called PDL-1 antibody AB01
binding result [3]: no binding (tested: 50 ug/ml, then 3-fold dilutions)

EC50 [1]: 1.84 nM
EC50 of blocking PDL-1/PD1 in the luciferase (NFAT) reporter assay [2]: 1.53 nM
binding result [3]: binds
EC50 [5]: 0.6 nM
EC50 [6]: 0.013 nM
EC50 [7]: 0.531 nM
EC50 [4]: 0.0324 nM
EC50 as a multiple of that of AB02 [8]: 10 to 12 times
B2: anti-PDL-1/CTLA-4 recombinant bispecific antibody AB04 (bispecific antibody, human IgG1, kappa)
heavy: not shown
light: B1 light
notes: The scFv is at the C-terminus of the heavy chain; also called AB4

EC50 [1]: 2.6 nM
EC50 of blocking PDL-1/PD1 in the luciferase (NFAT) reporter assay [2]: 1.82 nM
binding result [3]: binds
EC50 [5]: 0.107 nM
EC50 [6]: 0.0162 nM
EC50 [7]: 0.0862 nM
EC50 [4]: 0.0215 nM
B3: anti-PDL-1/CTLA-4 recombinant bispecific antibody AB03 (bispecific antibody, human IgG1, kappa)
heavy: not shown
light: B1 light
notes: The scFv is at the N-terminus of the heavy chain; also called AB003
